Results: patent US20020051974
pEC50, pKd: −log10 of the molar value. Like-named read-outs stand apart in the source and are kept apart here.

How the values were obtained:
[1] = system: T1, VEGF (vascular endothelial growth factor), P15692-4; assay: filter; conditions: 50% of RNA bound, PBS
T1 sequence: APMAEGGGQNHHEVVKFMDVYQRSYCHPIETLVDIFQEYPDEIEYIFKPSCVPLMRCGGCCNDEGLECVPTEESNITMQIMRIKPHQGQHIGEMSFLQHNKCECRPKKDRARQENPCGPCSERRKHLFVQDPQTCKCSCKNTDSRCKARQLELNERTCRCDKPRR

[2] = system: T1, VEGF (vascular endothelial growth factor), P15692-4; conditions: CITED Jellinek et al 1994, cited from earlier work

## GGGAAUGGAUCCACAUCUACGAAUUCAGGCAGCGUAGAGGGUUCACUCUGCCGAGUUUCACUGCAGACUUGACGAAGCUU [V01]
[1]; 1 mM MgCl2, room temperature
  pEC50: 7.72

## GGGAAUGGAUCCACAUCUACGAAUUCAGGUGGAAAGCAAGUUCCGCGCACGUUAAUUUCACUGCAGACUUGACGAAGCUU [V08]
[1]; 1 mM MgCl2, room temperature
  pEC50: 7.84

## GGGAAUGGAUCCACAUCUACGAAUUCCGCGCACGUAGGUUGGGUGUAACUGCGUUGUUCACUGCAGACUUGACGAAGCUU [V05]
[1]; 1 mM MgCl2, room temperature
  pEC50: 7.82

## GGGAAUGGAUCCACAUCUACGAAUUCCGCGCACGUAGGUUGGGUGUAACUGCGUUGUUCACUGCAGACUUGACGAAGCUU [V06]
[1]; 1 mM MgCl2, printed sequence identical to V05
  pEC50: 7.43

## GGGAAUGGAUCCACAUCUACGAAUUCCGCGCACGUCACGGGCCGACACGAAUAUGGUUCACUGCAGACUUGACGAAGCUU [V10]
[1]; 1 mM MgCl2, room temperature
  pEC50: 7.50

## GGGAAUGGAUCCACAUCUACGAAUUCCGCGCGCGCUAACCUUGNGGNGNAAGUAUGUUCACUGCAGACUUGACGAAGCUU [V13]
[1]; 1 mM MgCl2, sequence contains N
  pEC50: 8.08

## GGGAAUGGAUCCACAUCUACGAAUUCCGUUCUGCCGAGACUGCACGUGUGCUUGAAUUCACUGCAGACUUGACGAAGCUU [V09]
[1]; 1 mM MgCl2, room temperature
  pEC50: 7.62

## GGGAAUGGAUCCACAUCUACGAAUUCGAGGGUCCGUCUGCCGAGUCUUGUAACACCUUCACUGCAGACUUGACGAAGCUU [V02]
[1]; 1 mM MgCl2, room temperature
  pEC50: 7.67

## GGGAAUGGAUCCACAUCUACGAAUUCGAUGGCGUUAGUGGGAAUGAUUCUGCCGAGUUCACUGCAGACUUGACGAAGCUU [V07]
[1]; 1 mM MgCl2, room temperature
  pEC50: 7.76

## GGGAAUGGAUCCACAUCUACGAAUUCGGAUAUUCCGCGCACGUCAUUUCAUCAGCUUUCACUGCAGACUUGACGAAGCUU [V19]
[1]; 1 mM MgCl2, room temperature
  pEC50: 8.12

## GGGAAUGGAUCCACAUCUACGAAUUCGGGAACAGCUCUAUUCCGCGCACGUUUGAGUUCACUGCAGACUUGACGAAGCUU [V04]
[1]; 1 mM MgCl2, room temperature
  pEC50: 8.34

## GGGAAUGGAUCCACAUCUACGAAUUCUGUAAGAUUGGUCUCCAGACUGCCGAGCUGUUCACUGCAGACUUGACGAAGCUU [V18]
[1]; 1 mM MgCl2, text gives 8.5
  pEC50: 8.07

## GGGAAUGGAUCCACAUCUACGAAUUCUUUGAAGAGGGUCAAUCCGCGCACGUUACGUUCACUGCAGACUUGACGAAGCUU [V03]
[1]; 1 mM MgCl2, room temperature
  pEC50: 7.49

## GGGAGCUCAGAAUAAACGCUCAAACGGUUCUGUGUGUGGACUAGCCGCGGCCGUUCGACAUGAGGCCCGGAUCCGGC [VEGF126 (RNA transcript of printed DNA)]
[2]; unit not repeated for this value
  pKd: 9.85
[1]; 1 mM MgCl2, room temperature
  pEC50: 7.70

## GGGAGCUCAGAAUAAACGCUCAAGACCCAUCGUCAACGGUUGAGUCUGUCCCGUUCGACAUGAGGCCCGGAUCCGGC [VEGF40 (RNA transcript of printed DNA)]
[2]
  pKd: 9.72
[1]; 1 mM MgCl2, room temperature
  pEC50: 8.38
